Read-outs that look alike come from different tables or passages of the source.
Columns and labels:
[1] = molecular target: penta-His-tagged PfAlba3 (Plasmodium falciparum (3D7)); test: AUC
PfAlba2 [2] = molecular target: T1, PfAlba2 (Plasmodium falciparum 3D7, UniProt Q8IDN4 1-211); test: EMSA
T1 sequence: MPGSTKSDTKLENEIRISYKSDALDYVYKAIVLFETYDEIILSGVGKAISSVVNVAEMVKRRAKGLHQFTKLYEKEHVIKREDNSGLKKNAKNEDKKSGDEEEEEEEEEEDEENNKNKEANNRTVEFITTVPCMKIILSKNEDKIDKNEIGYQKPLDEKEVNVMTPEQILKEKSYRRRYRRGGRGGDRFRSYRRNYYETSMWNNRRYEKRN

PfAlba4 [3] = molecular target: T2, PfAlba4 (Plasmodium falciparum 3D7, UniProt A0A5K1K8Y8 1-372); test: EMSA
T2 sequence: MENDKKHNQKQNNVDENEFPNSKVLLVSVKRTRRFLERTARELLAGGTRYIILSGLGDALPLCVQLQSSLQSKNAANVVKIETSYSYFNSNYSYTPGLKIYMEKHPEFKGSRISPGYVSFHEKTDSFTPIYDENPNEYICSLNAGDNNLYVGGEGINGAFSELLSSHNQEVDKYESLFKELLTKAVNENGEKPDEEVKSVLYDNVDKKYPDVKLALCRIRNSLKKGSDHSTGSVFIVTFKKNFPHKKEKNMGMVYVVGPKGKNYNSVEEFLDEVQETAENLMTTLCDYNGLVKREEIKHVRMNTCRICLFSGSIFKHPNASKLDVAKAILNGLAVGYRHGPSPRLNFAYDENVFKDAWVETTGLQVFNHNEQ

PfAlba4 [4] = molecular target: T2, PfAlba4; test: competition
PfAlba4 [5] = molecular target: T2, PfAlba4; test: competition; remark: listed apart in the source
PfAlba2 [6] = molecular target: T1, PfAlba2; test: EMSA; remark: listed apart in the source
PfAlba4 [7] = molecular target: T2, PfAlba4; test: EMSA; remark: listed apart in the source
PfAlba1 = molecular target: T3, PfAlba1 (Plasmodium falciparum 3D7, UniProt Q8IAX8 1-248); test: EMSA
T3 sequence: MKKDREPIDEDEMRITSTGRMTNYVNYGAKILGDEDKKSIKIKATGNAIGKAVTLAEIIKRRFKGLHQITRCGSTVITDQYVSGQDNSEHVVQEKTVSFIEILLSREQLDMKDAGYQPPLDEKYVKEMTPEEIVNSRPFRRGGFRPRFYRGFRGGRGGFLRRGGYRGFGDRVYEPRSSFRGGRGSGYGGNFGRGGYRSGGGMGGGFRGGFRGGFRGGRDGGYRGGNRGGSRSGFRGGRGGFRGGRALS

PfAlba3 [8] = molecular target: T4, PfAlba3 (Plasmodium falciparum 3D7, UniProt Q8IJX8 1-107); test: EMSA
T4 sequence: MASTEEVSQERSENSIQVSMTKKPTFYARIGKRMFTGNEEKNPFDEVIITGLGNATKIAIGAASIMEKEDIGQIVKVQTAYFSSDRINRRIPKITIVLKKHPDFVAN

PfAlba2 [9] = molecular target: T1, PfAlba2; test: EMSA; remark: listed apart in the source
PfAlba3 [10] = molecular target: T4, PfAlba3; test: EMSA; remark: listed apart in the source
PfAlba4 [11] = molecular target: T2, PfAlba4; test: competition; remark: listed apart in the source

In the case of “penta-His-tagged PfAlba3 (natural protein)”, the stoichiometry N [1] is reported as 2.

UUUUUUUUUUUUUUUUUUUUUU (ssRNA) [polyU 22-mer]: binds (PfAlba2 [2]); binds (PfAlba4 [3]).

B1: TARE6 fragment 42 bp (F1) (dsDNA)
DNA 1: CCCAAGCTTACTTATATTAGGACCTATATTAGTTATCTGAGG
DNA 2: CCTCAGATAACTAATATAGGTCCTAATATAAGTAAGCTTGGG
B1: binds (PfAlba4 [4]).

B2: Scr F1 (dsDNA)
DNA 1: GTACTTACTCTAATCTAGTCGTAGTATGTATGCCTCAATGAA
DNA 2: TTCATTGAGGCATACATACTACGACTAGATTAGAGTAAGTAC
B2: binds (PfAlba4 [5]).

AAAAAAAAAAAAAAAAAAAAAA (ssRNA) [polyA 22-mer]: binds (PfAlba2 [6]); binds (PfAlba4 [7]); binds (PfAlba1). AAAAAAAAAAAAAAAAAAAAAA (ssRNA) [polyA 22-mer]: binds (PfAlba3 [8]).

B3: Actin-II (dsDNA)
DNA 1: TCTGAAGAAGCTGTTGCTTTAGTAGTTGATAATGGAAGTGGT
DNA 2: ACCACTTCCATTATCAACTACTAAAGCAACAGCTTCTTCAGA
B3: binds (PfAlba4 [5]).

B4: TARE6 (79 bp) (dsDNA)
DNA 1: CCCAAGCTTACTTATATTAGGACCTATATTAGTTATCTGAGGACCTATATTACTTATTTTAGGACCTATATTGAATTCC
DNA 2: GGAATTCAATATAGGTCCTAAAATAAGTAATATAGGTCCTCAGATAACTAATATAGGTCCTAATATAAGTAAGCTTGGG
B4: binds (PfAlba2 [9]); binds (PfAlba3 [10]).

AAAAAAAAAAAAAAAAAAAAAA (ssRNA) [polyA 22-mer, unlabeled]: binds (PfAlba4 [11]).

B5: HSP70 (dsDNA)
DNA 1: GCTAGTGCAAAAGGTTCAAAACCAAATTTACCAGAATCCAAT
DNA 2: ATTGGATTCTGGTAAATTTGGTTTTGAACCTTTTGCACTAGC
B5: binds (PfAlba4 [5]).

Source: publication PMC3326326
